Data published in the supplement of paper PMC7877785.
± gives the uncertainty stated by the source.

Test: self-splicing fitness, log relative to wild type (ln ratio); higher = more splicing; Tetrahymena group I intron in knt gene, E. coli kanamycin selection, DiMSum; sequences stand for … in CUCUCU…GGAGGGAAAAGUUAUCAGGCAUGCACCUGGUAGCUAGUCUUUAAACCAAUAGAUUGCAUCGGUUUAAAAGGCAAGACCGUCAAAUUGCGGGAAAGGGGUCAACAGCCGUUCAGUACCAAGUCUCAGGGGAAACUUUGAGAUGGCCUUGCAAAGGGUAUGGUAAUAAGCUGACGGACAUGGUCCUAACCACGCAGCCAAGUCCUAAGUCAACAGAUCUUCUGUUGAUAUGGAUGCAGUUCACAGACUAAAUGUCGGUCGGGGAAGAUGUAUUCUUCUCAUAAGAUAUAGUCGGACCUCUCCUUAAUGGGAGCUAGCGGAUGAAGUGAUGCAACACUGGAGCCGCUGGGAACUAAUUUGUAUGCGAAAGUAUAUUGAUUAGUUUUGGAGUACUCGUGGUCG
Outline: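 A randomised library covering all eight P1ex-region intron nucleotides was built with the intron in the knt kanamycin-resistance gene on pET-22b(+) and held in E. coli BL21(DE3). Cells were grown overnight at 37°C or 30°C on LB agar, with or without 25 μg/mL kanamycin, plus 100 μg/mL carbenicillin, 50 μM IPTG and 0.2% rhamnose, and pooled colonies were amplicon-sequenced on an Illumina HiSeq 2500. DiMSum fitness is the error-weighted combination of wild-type-normalised replicate fold changes, kanamycin versus none.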

Sequence	self-splicing fitness (ln) (30 °C)	self-splicing fitness (ln) (37 °C)
AUUGAGCAAUAUUACGUCCU	-2.41 ± 0.19	-0.811 ± 0.15
UUCUAGCAAUAUUACGUUCA	-0.579 ± 0.16	-1.11 ± 0.18
GAAUAGCAAUAUUACGGGUA	-2.2 ± 0.19	-1.2 ± 0.14
GAAGAGCAAUAUUACGUUUA	-1.61 ± 0.15	-2.56 ± 0.2
UUGGAGCAAUAUUACGGACU	-3.18 ± 0.34	-2.65 ± 0.35
AUAUAGCAAUAUUACGCACA	-0.73 ± 0.19	-0.28 ± 0.23
UCAGAGCAAUAUUACGGAUA	-2.81 ± 0.3	
UGCUAGCAAUAUUACGGGGG	-0.837 ± 0.13	-2.32 ± 0.32
CAGUAGCAAUAUUACGGAUG	-1.04 ± 0.099	-0.362 ± 0.12
ACGCAGCAAUAUUACGUGUA	-2.93 ± 0.11	-1.6 ± 0.082
CCCUAGCAAUAUUACGGAGA	-4.85 ± 0.46	-2.68 ± 0.2
GCCUAGCAAUAUUACGCUCA	-1.68 ± 0.16	-0.0373 ± 0.17
ACAAAGCAAUAUUACGCUGG	-1.3 ± 0.095	-0.426 ± 0.12
AACUAGCAAUAUUACGUGAC	-2.92 ± 0.12	-1.38 ± 0.12
GCAUAGCAAUAUUACGUUUG	-3.21 ± 0.13	-1.91 ± 0.15
GAGAAGCAAUAUUACGACAA	-0.787 ± 0.1	-0.365 ± 0.12
CCCUAGCAAUAUUACGAGGU	-3.87 ± 0.16	-0.753 ± 0.1
GGCAAGCAAUAUUACGAAUC	-0.875 ± 0.17	-0.687 ± 0.26
AAAGAGCAAUAUUACGGUGA	-3.87 ± 0.22	-1.93 ± 0.14

Sequence	self-splicing fitness (ln) (30 °C)	self-splicing fitness (ln) (37 °C)
UUCUAGCAAUAUUACGUGCG	-1.98 ± 0.14	-2.14 ± 0.13
UCGAAGCAAUAUUACGACCG	-0.853 ± 0.12	-0.898 ± 0.14
UGCUAGCAAUAUUACGCAGC	-4.35 ± 0.36	-2.1 ± 0.28
UGUGAGCAAUAUUACGAUCC	-2.29 ± 0.31	-1.87 ± 0.39
GUUUAGCAAUAUUACGUCUU	-0.801 ± 0.11	-0.25 ± 0.11
AUUCAGCAAUAUUACGGCUU	0.744 ± 0.12	-0.128 ± 0.13
AACCAGCAAUAUUACGCUAG	-2.62 ± 0.082	-0.715 ± 0.08
UCACAGCAAUAUUACGACCG	-0.795 ± 0.11	0.149 ± 0.12
AAUUAGCAAUAUUACGUUGU	-3.79 ± 0.15	-1.72 ± 0.15
UUGUAGCAAUAUUACGACCU	-1.39 ± 0.15	-0.134 ± 0.16
AUGUAGCAAUAUUACGGCAA	0.118 ± 0.11	-0.419 ± 0.12
UUGAAGCAAUAUUACGUUCA	0.472 ± 0.094	0.134 ± 0.11
GUACAGCAAUAUUACGAAGG		-0.639 ± 0.25
CCAAAGCAAUAUUACGCAUC	-3.89 ± 0.16	-3.05 ± 0.16
UGCUAGCAAUAUUACGCGUC	-3.06 ± 0.27	-2.23 ± 0.27
UCAAAGCAAUAUUACGACAU	-3.633 ± 0.023	-2.37 ± 0.036
ACCAAGCAAUAUUACGGAAU	-3.05 ± 0.11	-1.15 ± 0.096
AAUAAGCAAUAUUACGAGGU	-4.58 ± 0.27	-2.11 ± 0.18
AUUCAGCAAUAUUACGUCAA	-0.663 ± 0.11	-0.912 ± 0.11
